Laboratory results as given in the supplement of paper PMC7877785.
± gives the uncertainty stated by the source.

Test: self-splicing fitness, log relative to wild type (ln ratio); higher = more splicing; Tetrahymena group I intron in knt gene, E. coli kanamycin selection, DiMSum; sequences stand for … in CUCUCU…GGAGGGAAAAGUUAUCAGGCAUGCACCUGGUAGCUAGUCUUUAAACCAAUAGAUUGCAUCGGUUUAAAAGGCAAGACCGUCAAAUUGCGGGAAAGGGGUCAACAGCCGUUCAGUACCAAGUCUCAGGGGAAACUUUGAGAUGGCCUUGCAAAGGGUAUGGUAAUAAGCUGACGGACAUGGUCCUAACCACGCAGCCAAGUCCUAAGUCAACAGAUCUUCUGUUGAUAUGGAUGCAGUUCACAGACUAAAUGUCGGUCGGGGAAGAUGUAUUCUUCUCAUAAGAUAUAGUCGGACCUCUCCUUAAUGGGAGCUAGCGGAUGAAGUGAUGCAACACUGGAGCCGCUGGGAACUAAUUUGUAUGCGAAAGUAUAUUGAUUAGUUUUGGAGUACUCGUGGUCG
Summary of the method: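 Six replicate transformations of E. coli BL21(DE3) with a pET-22b(+) library were grown overnight at 37°C or 30°C. The library randomised all eight P1ex-region intron nucleotides, the intron lying in the knt kanamycin-resistance gene, and plates were LB agar with or without 25 μg/mL kanamycin plus 100 μg/mL carbenicillin, 50 μM IPTG and 0.2% rhamnose. Pooled colonies were amplicon-sequenced on an Illumina HiSeq 2500, and fitness is the DiMSum error-weighted combination of wild-type-normalised replicate fold changes, kanamycin versus none.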

Row | Sequence | self-splicing fitness (ln) (30 °C) | self-splicing fitness (ln) (37 °C)
1 | AUAUAGCAAUAUUACGCACU | -0.015 ± 0.13 | -0.204 ± 0.16
2 | AUAUAGCAAUAUUACGCAGC | -3.62 ± 0.43 | -1.92 ± 0.27
3 | AUAUAGCAAUAUUACGCCGU | -0.99 ± 0.24 | -0.413 ± 0.19
4 | AUAUAGCAAUAUUACGCGAC | -2.73 ± 0.22 | -2.32 ± 0.21
5 | AUAUAGCAAUAUUACGCGCG | -0.915 ± 0.12 | -0.503 ± 0.15
6 | AUAUAGCAAUAUUACGCUGC |  | -1.74 ± 0.34
7 | AUAUAGCAAUAUUACGGAAA |  | -0.209 ± 0.33
8 | AUAUAGCAAUAUUACGGAGC |  | -2.15 ± 0.46
9 | AUAUAGCAAUAUUACGGCAG | -1.74 ± 0.16 | -1.79 ± 0.19
10 | AUAUAGCAAUAUUACGGCGU | -0.109 ± 0.11 | -0.16 ± 0.12
11 | AUAUAGCAAUAUUACGGCUC | -0.0589 ± 0.13 | -0.144 ± 0.16
12 | AUAUAGCAAUAUUACGGGAA | -2.9 ± 0.2 | -2.23 ± 0.19
13 | AUAUAGCAAUAUUACGGGGA | -2.21 ± 0.32 | -1.72 ± 0.41
14 | AUAUAGCAAUAUUACGGGUG | -1.81 ± 0.17 | -1.3 ± 0.15
15 | AUAUAGCAAUAUUACGGUAC | -3.69 ± 0.39 | -2.59 ± 0.22
16 | AUAUAGCAAUAUUACGGUUG | -3.18 ± 0.2 | -2.24 ± 0.26
17 | AUAUAGCAAUAUUACGUAAA | -2.17 ± 0.21 | -1.56 ± 0.29
18 | AUAUAGCAAUAUUACGUAGA | -2.19 ± 0.094 | -1.87 ± 0.15
19 | AUAUAGCAAUAUUACGUAUG | -3.36 ± 0.25 | -1.72 ± 0.3
20 | AUAUAGCAAUAUUACGUGGU | -2.88 ± 0.19 | -1.54 ± 0.29
21 | AUCAAGCAAUAUUACGAAGU | -2.52 ± 0.11 | -1.22 ± 0.12
22 | AUCAAGCAAUAUUACGACAC | -1.45 ± 0.079 | -0.324 ± 0.11
23 | AUCAAGCAAUAUUACGACGG | -3.8 ± 0.14 | -2.67 ± 0.15
24 | AUCAAGCAAUAUUACGAGAA | -1.21 ± 0.49 | -2.28 ± 0.28
25 | AUCAAGCAAUAUUACGAGCA | -1.3 ± 0.075 | -0.375 ± 0.076
26 | AUCAAGCAAUAUUACGAGUA | -1.56 ± 0.11 | -0.436 ± 0.1
27 | AUCAAGCAAUAUUACGAUAU | -1.21 ± 0.065 | -0.753 ± 0.092

Row | Sequence | self-splicing fitness (ln) (30 °C) | self-splicing fitness (ln) (37 °C)
28 | AUCAAGCAAUAUUACGAUCA | -1.14 ± 0.1 | -0.582 ± 0.11
29 | AUCAAGCAAUAUUACGCCAA | -1.99 ± 0.16 | -0.947 ± 0.13
30 | AUCAAGCAAUAUUACGCCGC | -2.23 ± 0.34 | 
31 | AUCAAGCAAUAUUACGCCUG | -1.61 ± 0.12 | -0.797 ± 0.16
32 | AUCAAGCAAUAUUACGCGCA | -0.314 ± 0.073 | 0.448 ± 0.098
33 | AUCAAGCAAUAUUACGCUAG | -2.76 ± 0.16 | -1.03 ± 0.13
34 | AUCAAGCAAUAUUACGCUUU | -3.57 ± 0.15 | -2.31 ± 0.12
35 | AUCAAGCAAUAUUACGGUGG | -3.54 ± 0.19 | -2.63 ± 0.2
36 | AUCAAGCAAUAUUACGUAAG | -2.05 ± 0.097 | -1.45 ± 0.13
37 | AUCAAGCAAUAUUACGUACG | -2.54 ± 0.11 | -0.576 ± 0.11
38 | AUCAAGCAAUAUUACGUAGA | -1.36 ± 0.094 | -1.66 ± 0.17
39 | AUCAAGCAAUAUUACGUCAA | -3.14 ± 0.2 | -0.928 ± 0.15
40 | AUCAAGCAAUAUUACGUCCG | -2.1 ± 0.14 | -1.14 ± 0.16
41 | AUCAAGCAAUAUUACGUGAA | -1.73 ± 0.071 | -1.45 ± 0.1
42 | AUCAAGCAAUAUUACGUUGG | -2.7 ± 0.13 | -2.25 ± 0.16
43 | AUCAAGCAAUAUUACGUUGU | -3.46 ± 0.17 | -1.92 ± 0.12
44 | AUCCAGCAAUAUUACGACAA | -0.977 ± 0.095 | -0.337 ± 0.096
45 | AUCCAGCAAUAUUACGCGGG | -3.37 ± 0.13 | -2.42 ± 0.17
46 | AUCCAGCAAUAUUACGCGUA | -0.536 ± 0.089 | -0.499 ± 0.097
47 | AUCCAGCAAUAUUACGGACU | -0.507 ± 0.068 | 0.126 ± 0.082
48 | AUCCAGCAAUAUUACGGAUG | -2.21 ± 0.094 | -1.68 ± 0.12
49 | AUCCAGCAAUAUUACGGCUU | -0.0325 ± 0.076 | 0.438 ± 0.1
50 | AUCCAGCAAUAUUACGGGUA | -1.58 ± 0.1 | -1.21 ± 0.089
51 | AUCCAGCAAUAUUACGGUUA | -0.475 ± 0.05 | 0.0679 ± 0.054
52 | AUCCAGCAAUAUUACGGUUC | -4.5 ± 0.17 | -1.95 ± 0.17
53 | AUCCAGCAAUAUUACGUAAG | -1.59 ± 0.065 | -0.715 ± 0.087
54 | AUCCAGCAAUAUUACGUAUU | -1.84 ± 0.078 | -1.23 ± 0.093

Row | Sequence | self-splicing fitness (ln) (30 °C) | self-splicing fitness (ln) (37 °C)
55 | AUCCAGCAAUAUUACGUCCG | -2.45 ± 0.17 | -1.04 ± 0.15
56 | AUCCAGCAAUAUUACGUCGG | -2.71 ± 0.089 | -2.43 ± 0.13
57 | AUCCAGCAAUAUUACGUCUA | -0.908 ± 0.066 | -0.497 ± 0.07
58 | AUCCAGCAAUAUUACGUGGC | -3.98 ± 0.17 | -2.62 ± 0.16
59 | AUCCAGCAAUAUUACGUGUU | -2.74 ± 0.094 | -2.45 ± 0.12
60 | AUCGAGCAAUAUUACGAAUA | -3.09 ± 0.44 | -2.21 ± 0.35
61 | AUCGAGCAAUAUUACGACAG | -2.51 ± 0.12 | -3.22 ± 0.19
62 | AUCGAGCAAUAUUACGAUAG | -3.68 ± 0.22 | -3.23 ± 0.2
63 | AUCGAGCAAUAUUACGAUUC | -2.98 ± 0.34 | 
64 | AUCGAGCAAUAUUACGCACA | -2.46 ± 0.16 | -0.76 ± 0.11
65 | AUCGAGCAAUAUUACGCUAU | -3.38 ± 0.29 | -3.08 ± 0.24
66 | AUCGAGCAAUAUUACGGAUG |  | 0.184 ± 0.17
67 | AUCGAGCAAUAUUACGGCCG | -1.92 ± 0.22 | -0.981 ± 0.2
68 | AUCGAGCAAUAUUACGGCGC | -1.38 ± 0.091 | -0.856 ± 0.13
69 | AUCGAGCAAUAUUACGGCUG | -1.8 ± 0.24 | -0.221 ± 0.35
70 | AUCGAGCAAUAUUACGGGCC | -1.92 ± 0.27 | -2.19 ± 0.37
71 | AUCGAGCAAUAUUACGGGGG | -3.4 ± 0.25 | -2.67 ± 0.26
72 | AUCGAGCAAUAUUACGGUAA | -2.41 ± 0.29 | -3.15 ± 0.35
73 | AUCGAGCAAUAUUACGGUAG |  | -1.93 ± 0.27
74 | AUCGAGCAAUAUUACGGUCA | -2.98 ± 0.18 | -2.07 ± 0.18
75 | AUCGAGCAAUAUUACGGUUA | -3.3 ± 0.23 | -1.04 ± 0.13
76 | AUCGAGCAAUAUUACGGUUC | -2.93 ± 0.24 | 
77 | AUCGAGCAAUAUUACGUAAC | -3.15 ± 0.43 | 
78 | AUCGAGCAAUAUUACGUACA | -3.78 ± 0.33 | -1.72 ± 0.16
79 | AUCGAGCAAUAUUACGUCGC | -2.55 ± 0.28 | -2.21 ± 0.29
